The results in this text go back to patent EP4670784A1 (Eberhard Karls Universität Tübingen (Medizinische Fakultät), dated 2025).

Test [1] deals with T1, Recombinant human G-CSFR (Glu25-Pro621, 381-GR/CF, R&D Systems) (human, UniProt Q99062 25-621).
T1 construct: range 25-621; Bought protein, amine-coupled to a CM5 chip for SPR; also called rhG-CSFR; granulocyte-colony stimulating factor receptor
T1 sequence (looked up): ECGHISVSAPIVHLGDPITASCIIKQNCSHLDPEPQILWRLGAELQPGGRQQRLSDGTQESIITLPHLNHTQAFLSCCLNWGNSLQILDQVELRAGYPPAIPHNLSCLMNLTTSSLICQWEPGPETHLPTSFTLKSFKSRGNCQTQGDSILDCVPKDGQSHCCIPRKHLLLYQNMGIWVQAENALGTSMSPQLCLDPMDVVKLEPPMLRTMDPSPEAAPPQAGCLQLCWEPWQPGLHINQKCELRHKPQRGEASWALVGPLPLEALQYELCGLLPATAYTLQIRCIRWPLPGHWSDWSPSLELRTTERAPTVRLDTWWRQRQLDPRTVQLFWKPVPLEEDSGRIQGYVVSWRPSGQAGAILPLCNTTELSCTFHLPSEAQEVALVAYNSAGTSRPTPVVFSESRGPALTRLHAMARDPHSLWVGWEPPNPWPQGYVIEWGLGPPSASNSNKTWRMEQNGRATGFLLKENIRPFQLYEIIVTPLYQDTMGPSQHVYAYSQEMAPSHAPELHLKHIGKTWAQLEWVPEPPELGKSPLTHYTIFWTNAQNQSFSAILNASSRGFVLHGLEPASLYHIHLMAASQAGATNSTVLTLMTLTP
The test can be described thus: SPR, rhG-CSFR on CM5 chip (Fig. 3E). On the technique in general: Surface plasmon resonance follows binding to a sensor surface in real time, without labels.

The target of test [2] is T1, Recombinant human G-CSFR (Glu25-Pro621, …). Description: SPR, Biacore X100, multi-cycle kinetics, rhG-CSFR amine-coupled to CM5 chip, design as analyte, 1:1 model; series of Fig. 6 (from 20 nM).
Test [3] has the same target. Description: SPR, Biacore X100, multi-cycle kinetics, rhG-CSFR amine-coupled to CM5 chip, design as analyte, 1:1 model; series of Fig. 13 (from 125 nM).
For test [4] the target is unchanged. Description: not stated in the sentence (SPR values of Table 2 agree).
For test [5] the target is unchanged. The test can be described thus: SPR, Biacore X100, multi-cycle kinetics, rhG-CSFR amine-coupled to CM5 chip, design as analyte, 1:1 model; series of Fig. 13 (from 31 nM).
The target is the same in test [6]. The test can be described thus: SPR, Biacore X100, multi-cycle kinetics, rhG-CSFR amine-coupled to CM5 chip, design as analyte, 1:1 model; series of Fig. 15C (from 20 nM).
The target in a further test is T2, G-CSFR on Kasumi-1 cells (UniProt Q99062 25-836, limits assumed).
T2 sequence (looked up): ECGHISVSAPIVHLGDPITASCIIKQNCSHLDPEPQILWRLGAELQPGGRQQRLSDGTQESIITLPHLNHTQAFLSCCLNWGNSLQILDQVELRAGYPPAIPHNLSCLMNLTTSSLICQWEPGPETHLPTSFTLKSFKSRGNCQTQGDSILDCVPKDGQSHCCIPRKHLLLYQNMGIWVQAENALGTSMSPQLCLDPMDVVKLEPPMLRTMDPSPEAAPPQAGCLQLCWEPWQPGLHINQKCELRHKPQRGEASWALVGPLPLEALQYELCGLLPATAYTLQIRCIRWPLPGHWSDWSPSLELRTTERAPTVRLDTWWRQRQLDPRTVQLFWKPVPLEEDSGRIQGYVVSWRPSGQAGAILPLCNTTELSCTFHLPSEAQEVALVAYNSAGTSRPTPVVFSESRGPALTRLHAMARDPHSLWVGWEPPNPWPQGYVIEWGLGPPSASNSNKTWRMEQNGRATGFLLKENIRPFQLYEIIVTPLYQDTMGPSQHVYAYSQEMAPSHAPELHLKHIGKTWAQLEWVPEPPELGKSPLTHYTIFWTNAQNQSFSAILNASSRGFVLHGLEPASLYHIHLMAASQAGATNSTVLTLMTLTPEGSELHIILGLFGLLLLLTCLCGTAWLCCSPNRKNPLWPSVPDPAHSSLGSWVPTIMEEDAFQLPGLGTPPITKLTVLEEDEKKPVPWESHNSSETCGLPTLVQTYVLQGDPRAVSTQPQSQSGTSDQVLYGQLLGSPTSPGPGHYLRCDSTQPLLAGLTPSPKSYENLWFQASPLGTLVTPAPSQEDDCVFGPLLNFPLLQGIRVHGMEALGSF
Description: cell-based or functional assay.

The target of another test is T3, G-CSFR on NFS-60 cells (UniProt P40223 26-837, limits assumed).
T3 sequence (looked up): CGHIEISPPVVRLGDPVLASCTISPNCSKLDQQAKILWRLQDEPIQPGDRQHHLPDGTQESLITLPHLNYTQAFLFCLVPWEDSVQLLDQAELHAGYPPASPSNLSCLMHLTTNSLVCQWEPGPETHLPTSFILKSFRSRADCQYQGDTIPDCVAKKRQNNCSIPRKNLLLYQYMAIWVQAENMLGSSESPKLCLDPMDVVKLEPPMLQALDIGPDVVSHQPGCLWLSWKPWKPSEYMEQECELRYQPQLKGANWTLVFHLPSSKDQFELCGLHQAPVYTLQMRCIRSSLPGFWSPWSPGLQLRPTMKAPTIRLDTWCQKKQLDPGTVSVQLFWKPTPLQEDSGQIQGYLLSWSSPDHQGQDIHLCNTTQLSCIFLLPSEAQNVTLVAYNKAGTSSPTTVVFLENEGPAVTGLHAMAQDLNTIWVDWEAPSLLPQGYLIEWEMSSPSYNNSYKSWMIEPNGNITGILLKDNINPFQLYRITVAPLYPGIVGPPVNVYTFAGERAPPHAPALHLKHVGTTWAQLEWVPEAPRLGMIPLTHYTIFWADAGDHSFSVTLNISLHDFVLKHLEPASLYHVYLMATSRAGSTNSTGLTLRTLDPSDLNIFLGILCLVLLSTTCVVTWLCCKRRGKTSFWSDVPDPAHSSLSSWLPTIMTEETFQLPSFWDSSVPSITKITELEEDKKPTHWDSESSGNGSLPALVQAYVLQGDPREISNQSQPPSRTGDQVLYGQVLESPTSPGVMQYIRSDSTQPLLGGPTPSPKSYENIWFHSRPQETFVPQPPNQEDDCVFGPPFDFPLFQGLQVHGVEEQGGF
Description: cell-based or functional assay.

Test [7] deals with T1, Recombinant human G-CSFR (Glu25-Pro621, …). Description: SPR, twofold dilution series from 20 nM bop3 against chip-immobilized G-CSFR (Fig. 14B); reference not named.

Substitutions are numbered along the chain they refer to.

B1: boa2 (designed binder)
chain: MAALAAALQSIYRKLAEMQRKLKSLEGISPELGPALDALRYDMADFAILMAQAMEEGLDSLPQSFLRKALEMIRKIQADAAALREKLAATYKGNDRADAAVYDAADLEILLEQAYEILRHLAAA
notes: Strictly monomeric in solution; Expressed from pET28a downstream of an N-terminal His-tag and thrombin cleavage site; also called bivalent-orientation antiparallel design 2
Broadly, the Kd is a measure of binding affinity in units of concentration. As usually defined, the koff is the first-order rate constant of dissociation. For orientation: kon means a measure of how fast the partners come together. On to B1, for which, in test [1], the “fold tighter binding than bv6” value amounted to 4 fold. In [2], the Kd stood at 1.1 nM, the koff is 0.0013 s⁻¹ and the on-rate (kon) is 1.4e+06 M⁻¹ s⁻¹.

B2: bv6 (designed binder)
chain: MAALAAALAEIYKGLAEYQARLKSLEGISPELGPALDALRYDMADFAILMAQAMEEGLDSLPQSFLRKALEMIRKIQADAAALREKLAATYKGNDRAAAAVEIAAQLEAFLEKAYQILRHLAAA
notes: Expressed from pET28a downstream of an N-terminal His-tag and thrombin cleavage site; Minorly dimeric in solution; also called starting template
On to B2, for which, in test [3], the Kd stood at 14 nM, the koff amounted to 0.0033 s⁻¹ and the kon was found to be 240000 M⁻¹ s⁻¹. The “fold tighter binding than Boskar4” value in [4] amounted to 12 fold. In addition, in test [2], the Kd was determined as 4.3 nM, the koff is 0.0051 s⁻¹ and the kon came out at 1.2e+06 M⁻¹ s⁻¹.

B3: bv22 (designed binder)
chain: B2 chain with I48Y, S64R, R67W
notes: Expressed from pET28a with N-terminal His-tag and thrombin cleavage site; also called Boskar4 variant bv22; second-generation variant
Turning to B3, in test [5], the Kd was found to be 1.1 nM, the dissociation rate constant (koff) was determined as 0.00092 s⁻¹ and the kon worked out at 880000 M⁻¹ s⁻¹. Also, in test [6], the Kd was found to be 1.3 nM, the koff worked out at 0.0018 s⁻¹ and the kon worked out at 1.4e+06 M⁻¹ s⁻¹.

B4: bop1 (designed binder)
chain: MAALDAALYEIYDGLILYQQRLKSLEGISPELGPALDALRYDMADFAILMAQAMEEGLDSLPQSFLRKALEMIRKIQADAAALREKLAATYKGNDRAAAAQSIARKLEEMLEKAYQILRHLAAA
notes: De novo four-helix bundle, strictly monomeric in solution; Expressed from pET28a downstream of an N-terminal His-tag and thrombin cleavage site; also called bivalent-orientation parallel design 1
B4: in test [2], the Kd stood at 2.7 nM, the koff worked out at 0.0022 s⁻¹ and the kon is 880000 M⁻¹ s⁻¹. Moreover, in test [6], the Kd was found to be 3.2 nM, the koff was found to be 0.0063 s⁻¹ and the kon worked out at 2e+06 M⁻¹ s⁻¹.

B5: bv21 (designed binder)
chain: B2 chain with Y41W, I48Y, S64R, R67W
notes: Expressed from pET28a with N-terminal His-tag and thrombin cleavage site; also called Boskar4 variant bv21
B5: in test [5], the Kd came to 1.4 nM, the koff was determined as 0.0011 s⁻¹ and the kon worked out at 820000 M⁻¹ s⁻¹.

B6: bv23 (designed binder)
chain: B2 chain with I48Y, R67W, K75W
notes: Expressed from pET28a with N-terminal His-tag and thrombin cleavage site; also called Boskar4 variant bv23
Consider B6, for which, in test [5], the Kd came to 1.8 nM, the dissociation rate constant (koff) amounted to 0.0015 s⁻¹ and the kon worked out at 860000 M⁻¹ s⁻¹.

B7: boa1 (designed binder)
chain: B1 chain with R20A, D103I, E116Q
notes: Strictly monomeric in solution; Expressed from pET28a downstream of an N-terminal His-tag and thrombin cleavage site; also called bivalent-orientation antiparallel design 1
As for B7, in test [2], the Kd was 3.7 nM, the koff came out at 0.0024 s⁻¹ and the kon is 690000 M⁻¹ s⁻¹.

B8: bv24 (designed binder)
chain: B2 chain with Y41W, I48C, S64R, R67W
notes: Expressed from pET28a with N-terminal His-tag and thrombin cleavage site; also called Boskar4 variant bv24
With B8, in [5], the Kd is 1.7 nM, the koff came to 0.0017 s⁻¹ and the kon turned out to be 1e+06 M⁻¹ s⁻¹.

B9: bop3 (designed binder)
chain: B4 chain with I48Y, S64R, R67W
notes: exclusively monomeric by SEC; Expressed from pET28a downstream of an N-terminal His-tag and thrombin cleavage site
As to B9, the “IC50, Kasumi-1 competitive inhibition assay, 400 pg/mL rhG-CSF” value with G-CSFR on Kasumi-1 cells was determined as 1.97 nM. For the same molecule, the “fold improvement in inhibitory potency compared to bop1, NFS-60 competitive inhibition assay” value with G-CSFR on NFS-60 cells was determined as 3 fold. Besides, the “fold improvement in the receptor-binding affinity” value in test [7] amounted to 10 fold. In test [6], the Kd amounted to 1.2 nM, the koff was determined as 0.0018 s⁻¹ and the kon was found to be 1.5e+06 M⁻¹ s⁻¹.

B10: bop2 (designed binder)
chain: B4 chain with E10D, R21Q, K23E, E112R, I117D
notes: Strictly monomeric in solution; Expressed from pET28a downstream of an N-terminal His-tag and thrombin cleavage site; also called bivalent-orientation parallel design 2
For the molecule B10, the “fold tighter binding than bv6” value in test [1] was 4 fold. Further, in test [2], the Kd is 0.85 nM, the koff amounted to 0.0013 s⁻¹ and the kon amounted to 1.9e+06 M⁻¹ s⁻¹.
